This is an account of results in paper PMC11790970.

One data set addresses Asp85 (UniProt position 98, WARYADWLFTT). To be noted: cited from earlier work.
A further data set has as its system Asp97. To be noted: cited from earlier work.
The target in data set [1] is actinorhodopsin from Rhodoluna lacicola strain MWH-Ta8 (Rhodoluna lacicola strain MWH-Ta8). The data set can be described thus: SEC; Superdex 200 Increase 10/300 GL; 20 mM BTP-HCl pH 7.5, 150 mM NaCl, 0.25% (w/v) Cymal-5; sample at about 0.75-1.5 mg/mL; column calibrated with molecular weight markers.
Data set [2] shares this target. The data set can be described thus: cryo-EM structure; single particle analysis, 2D classification, 4 Å projection structure from 53,376 particles; protein purified in 0.25% (w/v) Cymal-5, 2.5 mg/mL.
For the next data set, the target named is Asp92 (position 92, …). Kind of data set: UV-vis. The conditions noted are these: not stated (pH adjusted at room temperature), 150 mM NaCl plus 100 mM acetate buffer, with residual HEPES-NaOH from a 5 mM stock diluted 5-fold, Detergent-solubilised, retinal-bound oligomeric RlActR at 0.2 mg/mL, whether the sample was light- or dark-adapted is not stated.

In the case of “Bacteriorhodopsin (BR) (Halobacterium salinarum)”, in the data set with Asp85, the pKa – broadly, the pH at which an ionisable group is half protonated – is “∼2.6”.

Turning to “Green-light absorbing proteorhodopsin (GPR) (uncultured marine gamma-proteobacterium)”, the pKa result with Asp97 was “∼7.5”.

“actinorhodopsin from Rhodoluna lacicola strain MWH-Ta8 (natural protein)”: the stoichiometry N in data set [1] and in data set [2] was 5 in each case.

B1: Actinorhodopsin RlActR (Rhodoluna lacicola (strain MWH-Ta8)) (protein)
chain: MNTLSNALDNGQFNLVYNILSLGIASMLFTAIFLFVARERVLPRYRIAVMVSATVTAIAAYHYFRMFDNFSHAFAGAENNPDAYNVGYRYVDWLLTVPLLLVELVAVLALAKAAQSSILNRLVPAAAAMIVLGYPGDAKLDIWGIAPSVWGLLSTIPFLYILYVLFIELGKSLSRQSEAVQKKVKILRLLLIATWGVYPITFILAMGTPPGAPFNASEFVAREVGYSIADILAKCLFGLIIYSIARIKSAEDDKEFAKAEFKDALEGHHHHH
On to B1, for which the pKa in the data set with Asp92 (position 92, …) came out at 5.6.
